Measurements published in patent US20040161776A1.
Several values for one entry are separate records, joined by “and”; a condition that tells them apart may be missing. Equal entries are not always repeated.

Key:
[1] = target: prostate specific membrane antigen (PSMA), full-length human (human) (UniProt Q04609)
[2] = target: prostate specific membrane antigen (PSMA), full-length human (human) (UniProt Q04609); assay: fraction of 177Lu labeled antibody bound to cells, column PSMA; column 3T3 (no PSMA): 1.7
[3] = target: prostate specific membrane antigen (PSMA), full-length human (human) (UniProt Q04609); assay: competition on PSMA-3T3 cells; unmodified mJ591 varied, competitor 111In radiolabeled 4.40
[4] = target: prostate specific membrane antigen (PSMA), full-length human (human) (UniProt Q04609); assay: average, PSMA-3T3 cells
[5] = target: prostate specific membrane antigen (PSMA), full-length human (human) (UniProt Q04609); assay: radiolabeled mAb bound to PSMA-3T3 cell pellets
[6] = target: prostate specific membrane antigen (PSMA), full-length human (human) (UniProt Q04609); assay: fraction of 177Lu labeled control antibody bound to cells, column PSMA; column 3T3 (no PSMA): 0.7

Chain of prostate specific membrane antigen (PSMA), full-length human (human) (Q04609 whole entry): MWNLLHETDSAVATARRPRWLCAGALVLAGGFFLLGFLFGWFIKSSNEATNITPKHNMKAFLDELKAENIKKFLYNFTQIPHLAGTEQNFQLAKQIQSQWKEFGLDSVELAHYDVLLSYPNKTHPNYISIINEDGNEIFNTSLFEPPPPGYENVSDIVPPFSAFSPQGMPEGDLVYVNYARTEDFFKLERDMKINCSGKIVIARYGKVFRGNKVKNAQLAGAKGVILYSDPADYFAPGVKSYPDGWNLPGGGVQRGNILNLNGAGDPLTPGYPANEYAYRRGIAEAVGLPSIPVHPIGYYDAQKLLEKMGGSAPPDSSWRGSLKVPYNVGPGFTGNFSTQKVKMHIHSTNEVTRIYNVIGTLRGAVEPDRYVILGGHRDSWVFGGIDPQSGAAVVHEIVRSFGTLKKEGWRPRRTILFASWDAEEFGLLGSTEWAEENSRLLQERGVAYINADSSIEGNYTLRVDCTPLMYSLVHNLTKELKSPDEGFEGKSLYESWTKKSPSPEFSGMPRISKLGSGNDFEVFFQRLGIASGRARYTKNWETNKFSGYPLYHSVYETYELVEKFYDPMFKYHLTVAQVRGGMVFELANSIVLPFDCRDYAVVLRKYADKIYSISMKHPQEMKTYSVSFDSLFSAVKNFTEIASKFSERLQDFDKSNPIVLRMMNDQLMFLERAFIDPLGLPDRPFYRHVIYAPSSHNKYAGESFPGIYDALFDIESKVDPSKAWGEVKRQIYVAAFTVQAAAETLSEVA
Chain of mJ591 (antibody) (VH): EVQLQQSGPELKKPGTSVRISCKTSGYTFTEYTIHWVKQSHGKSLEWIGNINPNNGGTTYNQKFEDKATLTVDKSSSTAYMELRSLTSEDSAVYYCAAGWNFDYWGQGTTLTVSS
Chain of mJ591 (antibody) (VL): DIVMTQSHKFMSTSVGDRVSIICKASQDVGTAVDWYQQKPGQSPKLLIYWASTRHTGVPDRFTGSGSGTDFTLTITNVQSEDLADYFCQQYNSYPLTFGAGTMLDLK

mJ591 (antibody)
PSMA+/PSMA- Ratio of tumor uptake, Mean [1]: 2.5 | Cell Based Immunoreactivity (%) [2]: 46.2%

mAb J591 (murine) (antibody)
IC50 (read off the curve) [3]: 3 nM

111In radiolabeled CHX-A''-DTPA antibody mJ591
Immunoreactivity (%) [4]: 56.7% | Immunoreactivity (%) [5]: 58.5% and 54.9%

IgG (antibody)
PSMA+/PSMA- Ratio of tumor uptake, Mean [1]: 1.16 | Cell Based Immunoreactivity (%) [6]: 5.9%
